This is an account of results in publication PMC8892280 (Proceedings of the National Academy of Sciences of the …, 2022).

Experiment [1] concerns the target T1, full-length human LRRK2 (leucine-rich repeat kinase 2) (human, UniProt Q5S007). Briefly: MST.
The next experiment addresses endogenous (mouse) LRRK2 (Mus musculus, UniProt Q5S006). As to the kind of experiment: pull-down.
The target of experiment [2] is LRRK2 Roc-COR-Kinase-WD40 (RCKW) domain construct (Homo sapiens, UniProt Q5S007, biotinylated (in the BLI experiment)). Briefly: BLI. For orientation: In BLI a coated tip is dipped into the sample, and binding shifts an interference pattern.
LRRK2 Roc-COR-Kinase-WD40 (RCKW) domain construct, sequence (Q5S007 whole entry, looked up, tested part not stated): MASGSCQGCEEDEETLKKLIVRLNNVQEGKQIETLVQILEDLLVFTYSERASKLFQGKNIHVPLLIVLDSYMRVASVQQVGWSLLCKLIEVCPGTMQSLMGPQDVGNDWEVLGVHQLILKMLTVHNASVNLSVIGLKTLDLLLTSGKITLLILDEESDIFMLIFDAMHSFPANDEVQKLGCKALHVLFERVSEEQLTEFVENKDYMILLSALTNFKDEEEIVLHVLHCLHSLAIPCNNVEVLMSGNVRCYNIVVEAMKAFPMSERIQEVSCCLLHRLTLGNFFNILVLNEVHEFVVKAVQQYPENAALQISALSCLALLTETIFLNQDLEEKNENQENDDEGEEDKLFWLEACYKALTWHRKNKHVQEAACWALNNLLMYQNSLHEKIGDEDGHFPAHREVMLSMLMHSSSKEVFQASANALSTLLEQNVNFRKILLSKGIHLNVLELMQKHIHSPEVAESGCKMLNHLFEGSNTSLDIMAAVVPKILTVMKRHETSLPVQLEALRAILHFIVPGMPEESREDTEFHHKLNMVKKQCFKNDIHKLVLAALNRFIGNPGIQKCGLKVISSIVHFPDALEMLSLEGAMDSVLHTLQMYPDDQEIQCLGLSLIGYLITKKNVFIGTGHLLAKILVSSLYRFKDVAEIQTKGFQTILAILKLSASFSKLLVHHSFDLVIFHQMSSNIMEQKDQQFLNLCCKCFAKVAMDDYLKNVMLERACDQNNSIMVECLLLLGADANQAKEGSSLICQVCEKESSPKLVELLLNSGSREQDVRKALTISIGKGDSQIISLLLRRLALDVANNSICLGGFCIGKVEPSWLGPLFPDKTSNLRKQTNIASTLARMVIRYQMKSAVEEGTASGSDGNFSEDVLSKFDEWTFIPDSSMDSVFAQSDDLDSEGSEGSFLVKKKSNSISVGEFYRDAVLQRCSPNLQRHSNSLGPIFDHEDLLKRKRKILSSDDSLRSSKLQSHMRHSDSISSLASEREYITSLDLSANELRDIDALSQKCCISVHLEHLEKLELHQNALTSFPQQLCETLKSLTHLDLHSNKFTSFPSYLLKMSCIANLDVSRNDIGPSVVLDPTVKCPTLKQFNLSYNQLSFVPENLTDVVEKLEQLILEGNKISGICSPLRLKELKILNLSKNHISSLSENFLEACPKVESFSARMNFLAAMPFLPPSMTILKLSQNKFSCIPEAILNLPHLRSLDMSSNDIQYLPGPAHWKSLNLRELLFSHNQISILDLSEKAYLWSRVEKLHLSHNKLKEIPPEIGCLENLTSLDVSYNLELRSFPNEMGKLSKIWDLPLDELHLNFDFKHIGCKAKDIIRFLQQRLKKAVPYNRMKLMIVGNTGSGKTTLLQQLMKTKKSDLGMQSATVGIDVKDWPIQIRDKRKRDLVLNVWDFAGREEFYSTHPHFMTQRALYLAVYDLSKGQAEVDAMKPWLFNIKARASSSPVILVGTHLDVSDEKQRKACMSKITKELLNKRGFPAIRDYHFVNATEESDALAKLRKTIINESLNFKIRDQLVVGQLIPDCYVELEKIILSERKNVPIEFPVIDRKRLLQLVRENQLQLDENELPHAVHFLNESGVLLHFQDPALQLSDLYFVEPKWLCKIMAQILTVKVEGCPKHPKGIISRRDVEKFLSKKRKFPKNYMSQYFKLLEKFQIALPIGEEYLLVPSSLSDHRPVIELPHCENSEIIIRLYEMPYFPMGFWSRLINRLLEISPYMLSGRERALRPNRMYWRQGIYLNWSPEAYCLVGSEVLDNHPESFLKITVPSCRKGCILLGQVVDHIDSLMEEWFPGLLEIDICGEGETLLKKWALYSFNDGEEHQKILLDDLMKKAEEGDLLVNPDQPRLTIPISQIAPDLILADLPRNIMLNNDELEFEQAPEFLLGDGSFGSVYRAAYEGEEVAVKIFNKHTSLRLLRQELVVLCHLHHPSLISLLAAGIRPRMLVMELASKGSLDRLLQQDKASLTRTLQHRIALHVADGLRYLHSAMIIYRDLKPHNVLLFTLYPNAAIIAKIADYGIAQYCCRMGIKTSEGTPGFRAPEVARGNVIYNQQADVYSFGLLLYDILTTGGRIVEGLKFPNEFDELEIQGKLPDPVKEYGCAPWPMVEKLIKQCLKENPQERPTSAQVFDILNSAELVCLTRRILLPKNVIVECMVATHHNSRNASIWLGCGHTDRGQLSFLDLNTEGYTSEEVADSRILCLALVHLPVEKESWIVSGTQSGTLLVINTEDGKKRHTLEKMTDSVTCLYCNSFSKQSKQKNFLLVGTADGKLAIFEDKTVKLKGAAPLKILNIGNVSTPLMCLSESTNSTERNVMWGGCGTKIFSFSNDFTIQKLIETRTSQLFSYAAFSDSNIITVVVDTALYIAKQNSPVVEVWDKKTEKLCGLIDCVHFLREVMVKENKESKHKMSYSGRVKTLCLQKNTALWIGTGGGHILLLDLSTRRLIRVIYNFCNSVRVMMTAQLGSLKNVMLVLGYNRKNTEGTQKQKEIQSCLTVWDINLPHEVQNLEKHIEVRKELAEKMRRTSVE
Experiment [3] deals with T1, full-length human LRRK2 (leucine-rich …). Briefly: enzyme kinetics.
Experiment [4] has the same target. As to the kind of experiment: BLI.
In experiment [5] the target is LRRK2 N-terminal armadillo (ARM) domain construct (Homo sapiens, UniProt Q5S007). As to the kind of experiment: ELISA.
LRRK2 N-terminal armadillo (ARM) domain construct, sequence (Q5S007 whole entry, looked up, the tested form may be a part): as the sequence (Q5S007 whole entry, looked up, tested part not stated) above
For experiment [6], the target named is LRRK2 RocCOR domain construct (Homo sapiens, UniProt Q5S007). As to the kind of experiment: ELISA. (An ELISA detects its analyte on a solid surface through an enzyme-linked reagent.)
LRRK2 RocCOR domain construct, sequence (Q5S007 whole entry, looked up, the tested form may be a part): as the sequence (Q5S007 whole entry, looked up, tested part not stated) above
A further experiment concerns the target LRRK2 Roc domain (Homo sapiens, UniProt Q5S007). Briefly: ELISA.
Experiment [7] addresses LRRK2 C-terminal subdomain of COR (COR-B) (Homo sapiens, UniProt Q5S007). As to the kind of experiment: ELISA.
Experiment [8] concerns the target LRRK2 kinase-WD40 (K-WD40) two-domain construct (Homo sapiens, UniProt Q5S007). Briefly: ELISA.
In experiment [9] the target is T1, full-length human LRRK2 (leucine-rich …). Briefly: ELISA.

T1 sequence (Q5S007 whole entry): as the sequence (Q5S007 whole entry, looked up, tested part not stated) above
LRRK2 C-terminal subdomain of COR (COR-B), sequence (Q5S007 whole entry, looked up, tested part not stated): as above
LRRK2 kinase-WD40 (K-WD40) two-domain construct, sequence (Q5S007 whole entry, looked up, tested part not stated): as above
LRRK2 Roc domain, sequence (Q5S007 1328-1511): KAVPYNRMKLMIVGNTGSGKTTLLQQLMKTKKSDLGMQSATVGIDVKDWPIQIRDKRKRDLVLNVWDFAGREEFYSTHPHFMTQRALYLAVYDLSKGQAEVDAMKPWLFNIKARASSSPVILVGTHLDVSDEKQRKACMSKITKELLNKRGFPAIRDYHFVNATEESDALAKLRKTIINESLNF

B1: m-TAMRA-labeled Nb6 (VHH)
VHH: QVQLVESGGGLVQAGGSLRLSCAASGSIFSPTAMGWYRQAPGKERELVAGITSGGYTNYRNFARGRFTISRDNAKKTVYLQMNSLNPEDTAVYYCNTLTISWSWGQGTQVTVSS
As usually defined, the Kd is the equilibrium constant for the complex coming apart. Molecule B1 gave a Kd in experiment [1] of 83 ± 24 nM.

B2: Nb6 (VHH)
VHH: QVQLVESGGGLVQAGGSLRLSCAASGSIFSPTAMGWYRQAPGKERELVAGITSGGYTNYRNFARGRFTISRDNAKKTVYLQMNSLNPEDTAVYYCNTLTISWSWGQGTQVTVSS
Usually Ki stands for a dissociation constant, usually derived from enzyme kinetics or from competition with a known ligand. Low readings indicate tighter binding, high ones weaker binding. Take B2: the binding result with endogenous (mouse) LRRK2 is given as “binds”. The Kd in [2] amounted to 5 ± 1 nM; in experiment [4], 8 ± 1 nM. For the same molecule, the Ki in experiment [3] was 5000 nM. Also, the “Kiu^app (apparent Ki for ATP-bound LRRK2)” value in [3] was 8000 nM.

B3: m-TAMRA-labeled Nb1 (VHH)
VHH: QVQLVESGGGLVQAGGSLRLSCVASGRIFSGNAMGWYRQAPGRQRELVAGITNGGYTNYRQFVKGRFTISRDNAKRTVYLQMNSLKPEDTAVYYCNALDREARQVDYWGQGTQVTVSS
Molecule B3 registered a dissociation constant (Kd) in experiment [1] of 91 ± 28 nM.

B4: Nb1 (VHH)
VHH: QVQLVESGGGLVQAGGSLRLSCVASGRIFSGNAMGWYRQAPGRQRELVAGITNGGYTNYRQFVKGRFTISRDNAKRTVYLQMNSLKPEDTAVYYCNALDREARQVDYWGQGTQVTVSS
Turning to B4, the binding result in the experiment with endogenous (mouse) LRRK2 is “binds”. The same molecule had a Kd in experiment [2] of 39 ± 4 nM. Besides, in experiment [3], the Ki was found to be 16000 nM and the “Kiu^app (apparent Ki for ATP-bound LRRK2)” value came to 30000 nM. For the same molecule, the Kd in experiment [4] turned out to be 55 ± 12 nM.

B5: Nb42 (VHH)
VHH: QVQLVESGGGLVQAGGSLRLSCAASGDVNYAVGWFRQAPRKEREFVAAINWRGDNTDYTDSVKGRFTISRDNAKNTVYLQMNSLKPEDTAVYYCAAKSAPYWYSDIAPDYWGQGTQVTVSS
For the molecule B5, the binding result with endogenous (mouse) LRRK2 is given as “binds”. The Kd is 18 ± 2 nM in experiment [2] and 58 ± 18 nM in experiment [4].

B6: Nb23 (VHH)
VHH: QVQLVESGGGLVQAGGSLRLSCAASGRTFSRYTMGWFRQAPGKDREFVARITTSGAVTTYADSAKGRFTISRDNAKNTVYLQMNTLKPEDTAVYYCAAGQGQLSSQSRFVDYWGQGTQVTVSS
In the case of B6, the binding result in the experiment with endogenous (mouse) LRRK2 is recorded as “binds”. In [2], binding was put at a Kd of 17 ± 7 nM. Further, in experiment [3], the Ki was 9000 nM and the “Kiu^app (apparent Ki for ATP-bound LRRK2)” value is 72000 nM. Also, the affinity in experiment [4], expressed as Kd, was 20 ± 5 nM.

B7: m-TAMRA-labeled Nb36 (VHH)
VHH: QVQLVESGGGLVQPGGSLRLSCAASGSIRSITTSAWFRQPPGKQRELVAGISSGTSTNYADSVKGRFTISRDNAKNTVYLQMNSLKPEDTAVYYCHVWISGTWYSGQGTQVTVSS
Take B7: the Kd in experiment [1] was determined as 78 ± 25 nM.

B8: Nb38 (VHH)
VHH: QVQLVESGGGLVQPGGSLRLSCAASGSIRSIATSAWYRQPPGKQRELVAGISSGTTTNYADSVKGRFTISRDNAKNTVYLQMNSLKPEDTAVYYCHAWISGTWISGQGTQVTVSS
As for B8, the binding result is listed as “no binding” in [5]; “binds” with endogenous (mouse) LRRK2; “no binding” in experiment [6]; “no binding” with LRRK2 Roc domain; “no binding” in [7]; “no binding” in experiment [8]. Further, the binding result in experiment [2] was “no binding”. In experiment [4], binding was characterised by a dissociation constant (Kd) of 37 ± 4 nM.

B9: Nb36 (VHH)
VHH: QVQLVESGGGLVQPGGSLRLSCAASGSIRSITTSAWFRQPPGKQRELVAGISSGTSTNYADSVKGRFTISRDNAKNTVYLQMNSLKPEDTAVYYCHVWISGTWYSGQGTQVTVSS
B9: the binding result in experiment [5] is listed as “no binding”; with endogenous (mouse) LRRK2 it was “binds”; in experiment [6], “no binding”; with LRRK2 Roc domain, “no binding”; in experiment [7], “no binding”; in experiment [8], “no binding”. Also, the binding result in experiment [2] was “no binding”. For the same molecule, the affinity in experiment [4], expressed as Kd, was 16 ± 8 nM.

B10: m-TAMRA-labeled Nb38 (VHH)
VHH: QVQLVESGGGLVQPGGSLRLSCAASGSIRSIATSAWYRQPPGKQRELVAGISSGTTTNYADSVKGRFTISRDNAKNTVYLQMNSLKPEDTAVYYCHAWISGTWISGQGTQVTVSS
For the molecule B10, in [1], binding was put at a Kd of 48 ± 11 nM.

B11: m-TAMRA-labeled Nb40 (VHH)
VHH: QVQLVESGGGLVQPGGSLRLSCVASGTIYAINRMGWYRQAPGKQRELVALITLGGGTNYGDSVKGRFTISRDNAKNTGYLQMNSLKPEDTAVYYCKVESSGYTDVFWGQGTQVTVSS
Take B11: the Kd in experiment [1] came to 26 ± 10 nM.

B12: Nb40 (VHH)
VHH: QVQLVESGGGLVQPGGSLRLSCVASGTIYAINRMGWYRQAPGKQRELVALITLGGGTNYGDSVKGRFTISRDNAKNTGYLQMNSLKPEDTAVYYCKVESSGYTDVFWGQGTQVTVSS
Turning to B12, the binding result with endogenous (mouse) LRRK2 is recorded as “binds”. The Kd stood at 2.6 ± 0.3 nM in [2] and 2.5 ± 0.3 nM in experiment [4].

B13: m-TAMRA-labeled Nb22 (VHH)
VHH: QVQLVESGGGLVQAGGSLRLSCAASGRTFSSYTMGWFRQAPGKEREFVAAIRWSGGSTYYADSVKGRFTISRDNAKNTVYLQMNSLKPEDTAVYYCAASDRGGFIATSGGWMDYWGKGTQVTVSS
On to B13, for which, in experiment [1], the Kd amounted to 145 ± 55 nM.

B14: Nb22 (VHH)
VHH: QVQLVESGGGLVQAGGSLRLSCAASGRTFSSYTMGWFRQAPGKEREFVAAIRWSGGSTYYADSVKGRFTISRDNAKNTVYLQMNSLKPEDTAVYYCAASDRGGFIATSGGWMDYWGKGTQVTVSS
In the case of B14, the binding result in the experiment with endogenous (mouse) LRRK2 is given as “binds”. Also, the Kd turned out to be 5 ± 1 nM in experiment [2] and 10 ± 1 nM in experiment [4].

B15: m-TAMRA-labeled Nb39 (VHH)
VHH: QVQLVESGGGLVQAGGSLRLSCRASGGTFSTYAMGWFRQVPGKERETVAAVKWSGDMTYYADSVKGRFTISRDNAKNTVYLQMNSLRPEDTAVYYCAARRGLSYYRGPSEYDYWGQGTQVTVSS
B15 yielded a Kd in experiment [1] of 79 ± 19 nM.

B16: Nb39 (VHH)
VHH: QVQLVESGGGLVQAGGSLRLSCRASGGTFSTYAMGWFRQVPGKERETVAAVKWSGDMTYYADSVKGRFTISRDNAKNTVYLQMNSLRPEDTAVYYCAARRGLSYYRGPSEYDYWGQGTQVTVSS
As for B16, the binding result is “binds” with endogenous (mouse) LRRK2; “no binding” in [6]; “no binding” with LRRK2 Roc domain; “no binding” in [7]; “no binding” in experiment [8]; “no binding” in experiment [2]. The same molecule yielded a Kd in experiment [4] of 12 ± 3 nM.

B17: m-TAMRA-labeled Nb17 (VHH)
VHH: QVQLVESGGGLVQPGGSLRLSCAASGSNIGYMAWYRQAPGSQRELVARIASGGSANYADSVKGRFTISRDNVKNTVYLHMNSLKPVDTAVYYCHADAWYNSRWSDYWGQGTQVTVSS
Take B17: the affinity in [1], expressed as Kd, was 67 ± 24 nM.

B18: Nb17 (VHH)
VHH: QVQLVESGGGLVQPGGSLRLSCAASGSNIGYMAWYRQAPGSQRELVARIASGGSANYADSVKGRFTISRDNVKNTVYLHMNSLKPVDTAVYYCHADAWYNSRWSDYWGQGTQVTVSS
Usually EC50 stands for the concentration giving half of the maximal effect. Low values mean a more potent agent, high ones a less potent agent. For the molecule B18, the binding result in experiment [5] was “no binding”; with endogenous (mouse) LRRK2, “binds”; in [6] it was “no binding”; in the experiment with LRRK2 Roc domain, “no binding”; in [7] it was “no binding”; in experiment [8] it was “no binding”. Besides, the binding result in [2] was “no binding”. Further, the EC50 in experiment [9] was roughly 3 nM. Moreover, in [9], the “EC50 in presence of Rab8a (20 µM)” value is roughly 5 nM. The same molecule displayed a Kd in experiment [4] of 2 ± 0.3 nM.
